The target in test [1] is MuLV envelope protein (control pseudovirus) (MuLV). Description: cell-based or functional assay.
For test [2], the target named is HIV-1 Env of isolate AC10 (HIV-1). Description: cell-based or functional assay.
In test [3] the target is HIV-1 Env of isolate THRO.18 (HIV-1). Description: cell-based or functional assay.
Test [4] concerns the target HIV-1 Env of isolate DU156 (HIV-1). Description: cell-based or functional assay.
In test [5] the target is HIV-1 Env of isolate ZM233 (HIV-1). Description: cell-based or functional assay.
The target in test [6] is HIV-1 92RW020 Env (clade A pseudovirus) (HIV-1). Kind of test: cell-based or functional assay.
Test [7] has as its target HIV-1 APV13 Env (clade B pseudovirus) (HIV-1). Description: cell-based or functional assay.
In test [8] the target is HIV-1 92UG005 Env (clade D pseudovirus) (HIV-1). Description: cell-based or functional assay.
In test [9] the target is HIV-1 JRCSF Env (clade B pseudovirus) (HIV-1) (UniProt P20871). Description: cell-based or functional assay.
In test [10] the target is HIV-1 MGRM-A-010 Env (pseudovirus) (HIV-1). Description: cell-based or functional assay.
For test [11], the target named is aMLV envelope (negative control pseudovirus) (aMLV). Kind of test: cell-based or functional assay.
In test [12] the target is HIV-1 Env of isolate 92TH021 (clade AE) (HIV-1). Kind of test: cell-based or functional assay.
For test [13], the target named is HIV-1 Env of isolate 92BR020 (clade B) (HIV-1). Kind of test: cell-based or functional assay.
Test [14] addresses Endo H treated JR-FL gp120 (HIV-1 (isolate JR-FL)). Kind of test: ELISA on coated gp120; EC50 by nonlinear regression. On the technique in general: An ELISA detects its analyte on a solid surface through an enzyme-linked reagent.
The target in test [15] is JR-FL gp120 ΔV3 (HIV-1 (isolate JR-FL)). The description is as above.
Test [16] addresses HIV-1 JR-CSF Env I423A (HIV-1 (isolate JR-CSF)) (UniProt P20871). Description: cell-based or functional assay.
Test [17] addresses HIV-1 Env of isolate MGRM-F1-023 (clade F), on pseudovirus (HIV-1). Description: cell-based or functional assay.
The target of test [18] is HIV-1 envelope glycoprotein (Env) of isolate MGRM-Chronic-B-003, on pseudovirus (HIV-1). Kind of test: cell-based or functional assay.
Test [19] concerns the target HIV-1 envelope glycoprotein (Env) of isolate APV_13, on pseudovirus (HIV-1). Description: cell-based or functional assay.
For test [20], the target named is HIV-1 Env of isolate VLGCA1 (pseudovirus) (HIV-1). Description: cell-based or functional assay.
In test [21] the target is HIV-1 Env of isolate 92RW009 (clade A), on pseudovirus (HIV-1). Description: cell-based or functional assay.
The target in test [22] is HIV-1 Env of isolate MGRM-AE-002 (pseudovirus) (HIV-1). Description: cell-based or functional assay.
The target of test [23] is HIV-1 Env of isolate APV_13 (HIV-1). Description: cell-based or functional assay.
Test [24] deals with HIV-1 Env of isolate 6535.3 (HIV-1). Description: cell-based or functional assay.
The target in test [25] is HIV-1 Env of isolate MG RM-A-014 (pseudovirus) (HIV-1). Kind of test: cell-based or functional assay.
Test [26] addresses HIV-1 Env of isolate 92UG114 (subtype D), on pseudovirus (HIV-1). Kind of test: cell-based or functional assay.
Test [27] concerns the target HIV-1 Env of isolate 93TH305 (HIV-1). Kind of test: cell-based or functional assay.
The target of test [28] is HIV-1 Env of isolate 92UG024 (subtype D), on pseudovirus (HIV-1). Kind of test: cell-based or functional assay.
For test [29], the target named is HIV-1 Env of isolate 92UG031 (pseudovirus) (HIV-1). Description: cell-based or functional assay.
In test [30] the target is HIV-1 Env of isolate 92WR024 (pseudovirus) (HIV-1). Description: cell-based or functional assay.
In test [31] the target is HIV-1 Env of isolate MGRM-D-001 (subtype D), on pseudovirus (HIV-1). Kind of test: cell-based or functional assay.
Test [32] has as its target HIV-1 Env of isolate MGRM-D-002 (subtype D), on pseudovirus (HIV-1). Kind of test: cell-based or functional assay.
Test [33] has as its target HIV-1 Env of isolate 92UG037 (pseudovirus) (HIV-1). Description: cell-based or functional assay.

As a reminder, the IC50 is the concentration that inhibits the measured activity by half. A high value points to a need for much substance. The term IC80 denotes the point of the concentration-response curve where the effect stands at 80%. Low readings indicate greater potency, high ones weaker potency. Broadly, the IC90 is the concentration needed for an effect of 90%. A higher IC90 goes with a need for much substance. For orientation: IC95 means the point of the concentration-response curve where the effect stands at 95%. Low readings indicate an effect from little substance, high ones a need for much substance. One may read the EC50 as the concentration giving half of the maximal effect. Read a high EC50 as weaker potency.

Sequence of 1443_C16 (PG16) (TCN-116) (antibody) (VH): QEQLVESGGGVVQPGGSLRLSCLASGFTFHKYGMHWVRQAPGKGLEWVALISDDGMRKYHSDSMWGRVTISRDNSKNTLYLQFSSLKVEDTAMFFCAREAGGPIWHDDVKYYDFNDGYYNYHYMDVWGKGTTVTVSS
Sequence of 1443_C16 (PG16) (TCN-116) (antibody) (VL): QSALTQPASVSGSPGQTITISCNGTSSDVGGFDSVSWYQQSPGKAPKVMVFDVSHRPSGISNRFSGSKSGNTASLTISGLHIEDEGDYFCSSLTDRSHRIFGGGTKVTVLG

For the substance 1443_C16 (PG16) (TCN-116) (antibody), the IC50, pseudovirus neutralization (TZM-bl), control virus in test [1] is above 25 µg/mL. In addition, the IC50, pseudovirus neutralization (TZM-bl) was below 0.01 µg/mL in [2], 2.19 µg/mL in test [3], below 0.01 µg/mL in test [4] and below 0.01 µg/mL in [5].

4877_D15 (PGT-122) (antibody): in test [6], the Neutralization by PGT-122, IC50 was found to be 0.0072 µg/mL; the Neutralization by PGT-122, IC80 was found to be 0.0407 µg/mL; the Neutralization by PGT-122, IC90 turned out to be 0.113 µg/mL; the Neutralization by PGT-122, IC95 came to 0.289 µg/mL. In [7], this substance came in with a Neutralization by PGT-122, IC50 of 0.992 µg/mL; a Neutralization by PGT-122, IC80 of 4.14 µg/mL; a Neutralization by PGT-122, IC90 of 8.6 µg/mL; a Neutralization by PGT-122, IC95 above 10 µg/mL. For the same substance, in test [8], the Neutralization by PGT-122, IC50 was above 10 µg/mL; the Neutralization by PGT-122, IC80 was above 10 µg/mL; the Neutralization by PGT-122, IC90 was above 10 µg/mL; the Neutralization by PGT-122, IC95 was above 10 µg/mL. For the same substance, in [9], the Neutralization by PGT-122, IC50 stood at 0.0727 µg/mL; the Neutralization by PGT-122, IC80 came to 0.245 µg/mL; the Neutralization by PGT-122, IC90 is 0.494 µg/mL; the Neutralization by PGT-122, IC95 amounted to 0.926 µg/mL.

On to 5141_B17 (PGT-126) (antibody), for which, in test [10], the IC50 turned out to be 0.0033 µg/mL, the IC80 came to 0.0137 µg/mL, the IC90 was found to be 0.0316 µg/mL and the IC95 is 0.0687 µg/mL.

Consider 5147_N06 (PGT-130) (antibody), for which, in test [11], the neutralization IC50 is above 10 µg/mL, the neutralization IC80 was above 10 µg/mL, the neutralization IC90 was above 10 µg/mL and the neutralization IC95 is above 10 µg/mL. For the same substance, in test [12], the neutralization IC50 is 0.0082 µg/mL, the neutralization IC80 was found to be 0.0261 µg/mL, the neutralization IC90 is 0.0513 µg/mL and the neutralization IC95 was 0.0963 µg/mL. Further, in test [13], the neutralization IC50 is 1.12 µg/mL, the neutralization IC80 is above 10 µg/mL, the neutralization IC90 was above 10 µg/mL and the neutralization IC95 is above 10 µg/mL.

Regarding PGT-121 (antibody), the EC50 in test [14] and in test [15] was above 10 µg/mL in each case. Also, in test [16], the Fold IC50 increase relative to wild-type was found to be 3.3 fold.

Take PGV04 (antibody): in [17], the IC50 (µg/mL), single-round pseudovirus neutralization was 0.171 µg/mL. The IC50, pseudovirus neutralization in test [18] stood at 0.258 µg/mL; in [19], 1.23 µg/mL.

Turning to VRC01 (antibody), the IC50 (µg/mL), pseudovirus neutralization was determined as 0.163 µg/mL in test [20]; 0.217 µg/mL in [22]; 0.135 µg/mL in test [25]; 0.469 µg/mL in test [29]; 0.327 µg/mL in [30]; 0.245 µg/mL in [33]. This substance also registered an IC50, single-round pseudovirus neutralization in test [21] of 0.187 µg/mL. Besides, the IC50 in [23] came to 0.657 µg/mL; in test [24], 1.75 µg/mL; in [27] it was 0.243 µg/mL. In addition, the IC50, pseudovirus neutralization is 0.33 µg/mL in test [26], 0.576 µg/mL in test [28], above 50 µg/mL in test [31] and 0.252 µg/mL in [32].

Source of the values: US20200024330A1.
